Data on two molecules can be found in publication PMC5171221.

Data set [1] addresses T1, apododecin DtE (triple E variant) (Halobacterium salinarum, UniProt B0R5M0 1-68, E45A;del50-50;del51-51).
T1 sequence: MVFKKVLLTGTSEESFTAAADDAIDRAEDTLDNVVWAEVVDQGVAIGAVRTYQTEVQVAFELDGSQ
Put plainly: QCM-D.

The target in data set [2] is T1, apododecin DtE (triple E variant). Put plainly: QCM-D. This is another data set of the same source.

Like-named read-outs stand apart in the source and are kept apart here.

B1: flavin-dsDNA 100 bp surface tether (dsDNA)
DNA 1: GTCACGATGGCCCAGTAGTT
DNA 2: AACTACTGGGCCATCGTGAC
DNA 3: CGCCGCCGCCGACGACGCCATCGACCGCGCGGAGGACACCCTCGACAACGTGGTGTGGGCGTCACGATGGCCCAGTAGTT
DNA 4: GCCCACACCACGTTGTCGAGGGTGTCCTCCGCGCGGTCGATGGCGTCGTCGGCGGCGGCGAACTACTGGGCCATCGTGAC
modifications: strand 1 5' flavin (CofC4); strand 2 5' (dithiane)3, on gold
Take B1: the binding result in data set [1] was “binds”.

B2: flavin-dsLNA 7 bp surface tether (XNA)
?: GGGCGAC
DNA: GTCGCCC
modifications: LNA; strand 1 5' flavin (CofC4); strand 2 5' 1,2-dithiane, on gold
B2: the binding result in data set [2] is “binds”.
